Source: the Immune Epitope Database (IEDB)

Key:
Details in all cases: source organism: Homo sapiens
HLA-A*33:01 = experiment: IEDB peptide-MHC binding, purified MHC/competitive/radioactivity; filed as Kd, often an IC50 or EC50 that approximates it; ≥ and ≤ were set here for values at or beyond the usual limits of such assays
HLA-A*68:01 = experiment: as above
HLA-A*31:01 = experiment: as above
HLA-A*11:01 = experiment: IEDB peptide-MHC binding, purified MHC/competitive/radioactivity; ≥ and ≤ were set here for values at or beyond the usual limits of such assays
HLA-A*03:01 = experiment: as above

| Sequence | Kd (HLA-A*33:01) | Kd (HLA-A*68:01) | Kd (HLA-A*31:01) | IC50 (HLA-A*11:01) | IC50 (HLA-A*03:01) |
| --- | --- | --- | --- | --- | --- |
| ALNFPGSQK | ≥ 10 µM | ≥ 10 µM | ≥ 10 µM | 4.6 nM | 8.5 nM |
| IALNFPGSQK | ≥ 10 µM | 4.71 µM | ≥ 10 µM | 316 nM | 36.7 nM |
| LIYRRRLMK |  |  |  |  | 5.5 nM |
| QLVLHQILK |  |  |  |  | 52.4 nM |
| SLIYRRRLMK |  |  |  |  | 39.3 nM |
